Results reported in PMC7739268 (Journal of molecular biology, 2016).
Where two headings read alike, the source gives them in different places.

B1: Recombinant human BMP-6 (ligand, UniProt P22004 375-513, looked up)
chain: SASSRRRQQSRNRSTQSQDVARVSSASDYNSSELKTACRKHELYVSFQDLGWQDWIIAPKGYAANYCDGECSFPLNAHMNATNHAIVQTLVHLMNPEYVPKPCCAPTKLNAISVLYFDDNSNVILKKYRNMVVRACGCH
B3: BMPRII-Fc (Fc fusion, human, UniProt Q13873 27-136, looked up)
chain: SQNQERLCAFKDPYQQDLGIGESRISHENGTILCSKGSTCYGLWEKSKGDINLVKQGCWSHIGDPQECHYEECVVTTTPPSIQNGTYRFCCCSTDLCNVNFTENFPPPDT
B4: Recombinant human Activin B (ligand, UniProt P09529 293-407, looked up)
chain: GLECDGRTNLCCRQQFFIDFRLIGWNDWIIAPTGYYGNYCEGSCPAYLAGVPGSASSFHTAVVNQYRMRGLNPGTVNSCCIPTKLSTMSMLYFDDEYNIVKRDVPNMIVEECGCA

How the values were obtained:
[1] = target: short-form Cerberus, Fc free (CerS) (human) (UniProt O95813); experiment: cross-linking
[2] = target: Recombinant human Activin B (human) (UniProt P09529); experiment: SPR
[3] = target: Recombinant human Activin B (human) (UniProt P09529); experiment: SPR; remark: listed apart in the source
[4] = target: short-form Cerberus Fc fusion protein (CerS-Fc) (human) (UniProt O95813); experiment: SPR
[5] = target: T1, wild-type Cerberus Fc fusion protein (wtCer-Fc) (human, UniProt O95813 18-267); experiment: SPR
T1 sequence (looked up): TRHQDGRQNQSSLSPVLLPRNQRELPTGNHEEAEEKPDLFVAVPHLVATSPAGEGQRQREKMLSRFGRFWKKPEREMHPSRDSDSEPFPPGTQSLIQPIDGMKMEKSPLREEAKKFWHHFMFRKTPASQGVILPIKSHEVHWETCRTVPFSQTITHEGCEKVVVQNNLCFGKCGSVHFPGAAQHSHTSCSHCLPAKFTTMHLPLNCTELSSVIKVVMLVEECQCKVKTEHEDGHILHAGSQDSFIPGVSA

[6] = target: T2, mutant Cerberus Fc fusion protein (mutCer-Fc) (human, UniProt O95813 18-267, Arg82Gly | Cys206Ala); experiment: SPR
T2 sequence (looked up): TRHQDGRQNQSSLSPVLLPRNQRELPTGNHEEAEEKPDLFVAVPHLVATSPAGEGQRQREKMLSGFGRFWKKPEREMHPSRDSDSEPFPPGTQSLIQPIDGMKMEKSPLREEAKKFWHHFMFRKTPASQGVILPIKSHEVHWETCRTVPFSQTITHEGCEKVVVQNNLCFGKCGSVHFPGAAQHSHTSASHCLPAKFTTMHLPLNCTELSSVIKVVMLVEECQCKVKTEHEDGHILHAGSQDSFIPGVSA

BMPRII-Fc = target: B3; experiment: SPR
[7] = target: B4; experiment: SPR
Recombinant human BMP-6 [8] = target: B1; experiment: SPR
[9] = target: B4; experiment: SPR; remark: listed apart in the source
Recombinant human BMP-6 [10] = target: B1; experiment: SPR; remark: listed apart in the source
[11] = target: B4; experiment: SPR; remark: listed apart in the source
Recombinant human BMP-6 [12] = target: B1; experiment: SPR; remark: listed apart in the source
SEC = target: the molecule itself; experiment: SEC

short-form Cerberus, Fc free (CerS) (from UniProt O95813 18-267) (domain or fragment)
stoichiometry N [1]: 2
IC50 [2]: 28.4 nM
IC50 [3]: 261 nM
percent reduction of Activin B binding to ActRIIA at 50 nM [3]: 10%

Recombinant human BMP-6 (from UniProt P22004 375-513) (ligand)
Kd [4]: 15.2 nM
koff [4]: 0.0012 s⁻¹

Recombinant human BMP-7 (from UniProt P18075 293-431) (ligand)
Kd [4]: 15.6 nM
koff [4]: 0.0021 s⁻¹
kon [4]: 140000 M⁻¹ s⁻¹

B1
Kd [5]: 19.1 ± 2.5 nM
koff [5]: 0.0011 s⁻¹
kon [5]: 55000 M⁻¹ s⁻¹
Kd [6]: 14.7 ± 3.6 nM
koff [6]: 0.001 s⁻¹
kon [6]: 70000 M⁻¹ s⁻¹

B2: Recombinant human Nodal (ligand, UniProt Q96S42 238-347, looked up)
chain: HHLPDRSQLCRKVKFQVDFNLIGWGSWIIYPKQYNAYRCEGECPNPVGEEFHPTNHAYIQSLLKRYQPHRVPSTCCAPVKTKPLSMLYVDNGRVLLDHHKDMIVEECGCL
binding result (BMPRII-Fc): binds

B3
binding result [7]: binds
binding result (Recombinant human BMP-6 [8]): binds

B4
Kd [5]: 0.096 ± 0.01 nM
koff [5]: 0.00022 s⁻¹
kon [5]: 2.3e+06 M⁻¹ s⁻¹
Kd [6]: 0.016 ± 0.003 nM
koff [6]: 3.1e-05 s⁻¹
kon [6]: 2e+06 M⁻¹ s⁻¹

B5: wild-type Cerberus, Fc free (wtCer) (natural protein, human, UniProt O95813 18-267, looked up)
chain: TRHQDGRQNQSSLSPVLLPRNQRELPTGNHEEAEEKPDLFVAVPHLVATSPAGEGQRQREKMLSRFGRFWKKPEREMHPSRDSDSEPFPPGTQSLIQPIDGMKMEKSPLREEAKKFWHHFMFRKTPASQGVILPIKSHEVHWETCRTVPFSQTITHEGCEKVVVQNNLCFGKCGSVHFPGAAQHSHTSCSHCLPAKFTTMHLPLNCTELSSVIKVVMLVEECQCKVKTEHEDGHILHAGSQDSFIPGVSA
IC50 [9]: 14.9 ± 4.2 nM
IC50 (Recombinant human BMP-6 [10]): 156 ± 9.2 nM
IC50 [11]: 26.2 ± 1.7 nM
IC50 (Recombinant human BMP-6 [12]): 319 ± 53.4 nM

B6: mutant Cerberus, Fc free (mutCer) (natural protein, human, UniProt O95813 18-267, looked up)
chain: TRHQDGRQNQSSLSPVLLPRNQRELPTGNHEEAEEKPDLFVAVPHLVATSPAGEGQRQREKMLSGFGRFWKKPEREMHPSRDSDSEPFPPGTQSLIQPIDGMKMEKSPLREEAKKFWHHFMFRKTPASQGVILPIKSHEVHWETCRTVPFSQTITHEGCEKVVVQNNLCFGKCGSVHFPGAAQHSHTSASHCLPAKFTTMHLPLNCTELSSVIKVVMLVEECQCKVKTEHEDGHILHAGSQDSFIPGVSA
stoichiometry N (SEC): 2
IC50 [9]: 7.4 ± 1.1 nM
IC50 (Recombinant human BMP-6 [10]): 48.3 ± 3.5 nM
IC50 [11]: 40.1 ± 2.5 nM
IC50 (Recombinant human BMP-6 [12]): 350 ± 96.1 nM

B7: Recombinant human BMP-7 (ligand, UniProt P18075 293-431, looked up)
chain: STGSKQRSQNRSKTPKNQEALRMANVAENSSSDQRQACKKHELYVSFRDLGWQDWIIAPEGYAAYYCEGECAFPLNSYMNATNHAIVQTLVHFINPETVPKPCCAPTQLNAISVLYFDDSSNVILKKYRNMVVRACGCH
Kd [5]: 17.3 ± 0.8 nM
koff [5]: 0.0028 s⁻¹
kon [5]: 160000 M⁻¹ s⁻¹
Kd [6]: 9.8 ± 0.9 nM
koff [6]: 0.0012 s⁻¹
kon [6]: 130000 M⁻¹ s⁻¹
